These sequences were tested on Escherichia coli TOP10 (assay: shrunken log2 fold change of peptide-encoding DNA abundance (4.5 h post-induction vs induction); higher = less antimicrobial activity (less host growth inhibition)). Conditions: time post-induction: 4.5 h; library: site-saturation at positions 5, 18, 19, 20.
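Further: peptides expressed intracellularly from a pBAD plasmid library in pooled LB shake-flask culture, induced with 0.3% L-arabinose, DNA abundance read by NGS, three biological replicates, DESeq2 with apeglm shrinkage.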

Row | Sequence | shrunken log2 fold change
1 | RRIRHRPPRLPRPRPRPSWCPRP | -0.453
2 | RRIRHRPPRLPRPRPRPSYCPRP | 0.00287
3 | RRIRHRPPRLPRPRPRPSYEPRP | -0.503
4 | RRIRHRPPRLPRPRPRPSYSPRP | -0.314
5 | RRIRHRPPRLPRPRPRPSYTPRP | -0.714
6 | RRIRHRPPRLPRPRPRPTACPRP | 0.074
7 | RRIRHRPPRLPRPRPRPTDAPRP | 0.0615
8 | RRIRHRPPRLPRPRPRPTFGPRP | 0.0378
9 | RRIRHRPPRLPRPRPRPTFVPRP | -0.152
10 | RRIRHRPPRLPRPRPRPTGAPRP | 0.0132
11 | RRIRHRPPRLPRPRPRPTGIPRP | -0.0208
12 | RRIRHRPPRLPRPRPRPTILPRP | -0.194
13 | RRIRHRPPRLPRPRPRPTKAPRP | -0.0108
14 | RRIRHRPPRLPRPRPRPTKLPRP | -0.255
15 | RRIRHRPPRLPRPRPRPTMLPRP | -0.468
16 | RRIRHRPPRLPRPRPRPTNAPRP | -0.463
17 | RRIRHRPPRLPRPRPRPTNEPRP | -0.512
18 | RRIRHRPPRLPRPRPRPTNRPRP | -0.162
19 | RRIRHRPPRLPRPRPRPTNSPRP | -0.258
20 | RRIRHRPPRLPRPRPRPTQLPRP | 0.278
21 | RRIRHRPPRLPRPRPRPTRQPRP | 0.254
22 | RRIRHRPPRLPRPRPRPTSDPRP | -0.302
23 | RRIRHRPPRLPRPRPRPTSGPRP | -0.0493
24 | RRIRHRPPRLPRPRPRPTTMPRP | -0.261
25 | RRIRHRPPRLPRPRPRPTWCPRP | 0.582

Row | Sequence | shrunken log2 fold change
26 | RRIRHRPPRLPRPRPRPTWRPRP | 0.381
27 | RRIRHRPPRLPRPRPRPVAEPRP | 0.232
28 | RRIRHRPPRLPRPRPRPVAFPRP | -0.187
29 | RRIRHRPPRLPRPRPRPVAWPRP | 0.252
30 | RRIRHRPPRLPRPRPRPVCAPRP | 0.208
31 | RRIRHRPPRLPRPRPRPVDCPRP | -0.0119
32 | RRIRHRPPRLPRPRPRPVDHPRP | -0.0462
33 | RRIRHRPPRLPRPRPRPVDKPRP | -0.308
34 | RRIRHRPPRLPRPRPRPVELPRP | 0.115
35 | RRIRHRPPRLPRPRPRPVFHPRP | -0.345
36 | RRIRHRPPRLPRPRPRPVFLPRP | -0.582
37 | RRIRHRPPRLPRPRPRPVGAPRP | 3.01
38 | RRIRHRPPRLPRPRPRPVHEPRP | -0.0609
39 | RRIRHRPPRLPRPRPRPVIIPRP | -0.248
40 | RRIRHRPPRLPRPRPRPVLDPRP | -0.116
41 | RRIRHRPPRLPRPRPRPVLNPRP | 0.157
42 | RRIRHRPPRLPRPRPRPVNDPRP | -0.0193
43 | RRIRHRPPRLPRPRPRPVNHPRP | -0.361
44 | RRIRHRPPRLPRPRPRPVNPPRP | -0.307
45 | RRIRHRPPRLPRPRPRPVPCPRP | 0.337
46 | RRIRHRPPRLPRPRPRPVPYPRP | -0.246
47 | RRIRHRPPRLPRPRPRPVRTPRP | 0.314
48 | RRIRHRPPRLPRPRPRPVSHPRP | 0.0628
49 | RRIRHRPPRLPRPRPRPVTMPRP | -0.513
50 | RRIRHRPPRLPRPRPRPVTSPRP | -0.000369

Row | Sequence | shrunken log2 fold change
51 | RRIRHRPPRLPRPRPRPVTTPRP | 0.0639
52 | RRIRHRPPRLPRPRPRPVVFPRP | -0.147
53 | RRIRHRPPRLPRPRPRPVVKPRP | -0.132
54 | RRIRHRPPRLPRPRPRPVVLPRP | -0.298
55 | RRIRHRPPRLPRPRPRPVVPPRP | -0.0888
56 | RRIRHRPPRLPRPRPRPVYHPRP | -0.282
57 | RRIRHRPPRLPRPRPRPWCCPRP | -0.352
58 | RRIRHRPPRLPRPRPRPWDGPRP | -0.0969
59 | RRIRHRPPRLPRPRPRPWEAPRP | -0.0553
60 | RRIRHRPPRLPRPRPRPWELPRP | -0.0835
61 | RRIRHRPPRLPRPRPRPWGSPRP | -0.356
62 | RRIRHRPPRLPRPRPRPWHFPRP | -0.0331
63 | RRIRHRPPRLPRPRPRPWIAPRP | 0.143
64 | RRIRHRPPRLPRPRPRPWIVPRP | -0.404
65 | RRIRHRPPRLPRPRPRPWLSPRP | -0.0373
66 | RRIRHRPPRLPRPRPRPWMLPRP | -0.0885
67 | RRIRHRPPRLPRPRPRPWNEPRP | -0.171
68 | RRIRHRPPRLPRPRPRPWRFPRP | 0.0342
69 | RRIRHRPPRLPRPRPRPWRRPRP | -0.0609
70 | RRIRHRPPRLPRPRPRPWSFPRP | 0.0231
71 | RRIRHRPPRLPRPRPRPWVGPRP | 0.0323
72 | RRIRHRPPRLPRPRPRPWWQPRP | 0.00354
73 | RRIRHRPPRLPRPRPRPWYQPRP | 0.0124
74 | RRIRHRPPRLPRPRPRPYCAPRP | -0.346
75 | RRIRHRPPRLPRPRPRPYCNPRP | -0.456

Row | Sequence | shrunken log2 fold change
76 | RRIRHRPPRLPRPRPRPYDQPRP | -0.291
77 | RRIRHRPPRLPRPRPRPYEAPRP | -0.445
78 | RRIRHRPPRLPRPRPRPYFAPRP | 0.52
79 | RRIRHRPPRLPRPRPRPYFFPRP | -0.485
80 | RRIRHRPPRLPRPRPRPYFVPRP | -0.84
81 | RRIRHRPPRLPRPRPRPYGPPRP | -0.311
82 | RRIRHRPPRLPRPRPRPYINPRP | -0.862
83 | RRIRHRPPRLPRPRPRPYLHPRP | -0.175
84 | RRIRHRPPRLPRPRPRPYMNPRP | -1.04
85 | RRIRHRPPRLPRPRPRPYMSPRP | -0.236
86 | RRIRHRPPRLPRPRPRPYNPPRP | -1.07
87 | RRIRHRPPRLPRPRPRPYPTPRP | -0.219
88 | RRIRHRPPRLPRPRPRPYRCPRP | 0.0121
89 | RRIRHRPPRLPRPRPRPYRNPRP | -0.191
90 | RRIRHRPPRLPRPRPRPYRYPRP | -0.177
91 | RRIRHRPPRLPRPRPRPYTDPRP | -0.000921
92 | RRIRHRPPRLPRPRPRPYTSPRP | -0.00159
93 | RRIRHRPPRLPRPRPRPYVCPRP | 0.0124
94 | RRIRHRPPRLPRPRPRPYVEPRP | 0.0369
95 | RRIRHRPPRLPRPRPRPYWHPRP | -0.666
96 | RRIRHRPPRLPRPRPRPYYCPRP | -0.541
97 | RRIRHRPPRLPRPRPRPYYDPRP | -0.0623
98 | RRIRIRPPRLPRPRPRPADDPRP | -0.062
99 | RRIRIRPPRLPRPRPRPADEPRP | -0.08
100 | RRIRIRPPRLPRPRPRPADFPRP | -0.162

Row | Sequence | shrunken log2 fold change
101 | RRIRIRPPRLPRPRPRPADYPRP | -0.635
102 | RRIRIRPPRLPRPRPRPAELPRP | -0.0331
103 | RRIRIRPPRLPRPRPRPAEPPRP | -0.21
104 | RRIRIRPPRLPRPRPRPAETPRP | -0.0338
105 | RRIRIRPPRLPRPRPRPAFGPRP | 0.209
106 | RRIRIRPPRLPRPRPRPAFSPRP | -0.155
107 | RRIRIRPPRLPRPRPRPAFTPRP | 0.106
108 | RRIRIRPPRLPRPRPRPAGQPRP | 0.0455
109 | RRIRIRPPRLPRPRPRPAIHPRP | -0.475
110 | RRIRIRPPRLPRPRPRPAIVPRP | -0.135
111 | RRIRIRPPRLPRPRPRPAKNPRP | 2.21
112 | RRIRIRPPRLPRPRPRPAKTPRP | 0.0509
113 | RRIRIRPPRLPRPRPRPAKYPRP | -0.247
114 | RRIRIRPPRLPRPRPRPALFPRP | -0.139
115 | RRIRIRPPRLPRPRPRPANAPRP | -0.319
116 | RRIRIRPPRLPRPRPRPANCPRP | -1.1
117 | RRIRIRPPRLPRPRPRPAPRPRP | 0.733
118 | RRIRIRPPRLPRPRPRPAPVPRP | 0.171
119 | RRIRIRPPRLPRPRPRPARFPRP | -0.0256
120 | RRIRIRPPRLPRPRPRPASAPRP | 0.613
121 | RRIRIRPPRLPRPRPRPAWAPRP | 0.243
122 | RRIRIRPPRLPRPRPRPAYTPRP | -1.41
123 | RRIRIRPPRLPRPRPRPCAFPRP | -0.1
124 | RRIRIRPPRLPRPRPRPCDDPRP | -0.395
125 | RRIRIRPPRLPRPRPRPCDIPRP | -0.416

Row | Sequence | shrunken log2 fold change
126 | RRIRIRPPRLPRPRPRPCDPPRP | 0.00225
127 | RRIRIRPPRLPRPRPRPCEEPRP | 0.0173
128 | RRIRIRPPRLPRPRPRPCEIPRP | -0.0178
129 | RRIRIRPPRLPRPRPRPCFAPRP | -0.1
130 | RRIRIRPPRLPRPRPRPCHTPRP | -0.0495
131 | RRIRIRPPRLPRPRPRPCINPRP | -0.355
132 | RRIRIRPPRLPRPRPRPCMFPRP | -0.738
133 | RRIRIRPPRLPRPRPRPCNKPRP | -0.47
134 | RRIRIRPPRLPRPRPRPCPGPRP | -0.372
135 | RRIRIRPPRLPRPRPRPCPMPRP | -0.367
136 | RRIRIRPPRLPRPRPRPCPVPRP | -0.523
137 | RRIRIRPPRLPRPRPRPCQIPRP | -0.0429
138 | RRIRIRPPRLPRPRPRPCSDPRP | -0.0062
139 | RRIRIRPPRLPRPRPRPCSPPRP | -0.271
140 | RRIRIRPPRLPRPRPRPCTKPRP | -0.151
141 | RRIRIRPPRLPRPRPRPCVAPRP | -0.288
142 | RRIRIRPPRLPRPRPRPCYLPRP | -0.0394
143 | RRIRIRPPRLPRPRPRPDARPRP | 0.262
144 | RRIRIRPPRLPRPRPRPDCEPRP | -0.0193
145 | RRIRIRPPRLPRPRPRPDDCPRP | -0.271
146 | RRIRIRPPRLPRPRPRPDEGPRP | -0.22
147 | RRIRIRPPRLPRPRPRPDEKPRP | -0.0762
148 | RRIRIRPPRLPRPRPRPDEPPRP | 0.115
149 | RRIRIRPPRLPRPRPRPDFTPRP | -0.355
150 | RRIRIRPPRLPRPRPRPDGCPRP | -0.229
